# Test results published in article PMC2836968 (Molecular Biology of the Cell, 2010).
# B1: Aha1 C-terminal domain (amino acids 163-338, with the linker region 163-200) (domain or fragment)
# chain: MILPTMNGESVDPVGQPALKTEERKAKPAPSKTQARPVGVKIPTCKITLKETFLTSPEELYRVFTTQELVQAFTHAPATLEADRGGKFHMVDGNVSGEFTDLVPEKHIVMKWRFKSWPEGHFATITLTFIDKNGETELCMEGRGIPAPEEERTRQGWQRYYFEGIKQTFGYGARLF
# B2: Aha1 N-terminal domain (amino acids 1-162) (domain or fragment)
# chain: MAKWGEGDPRWIVEERADATNVNNWHWTERDASNWSTDKLKTLFLAVQVQNEEGKCEVTEVSKLDGEASINNRKGKLIFFYEWSVKLNWTGTSKSGVQYKGHVEIPNLSDENSVDEVEISVSLAKDEPDTNLVALMKEEGVKLLREAMGIYISTLKTEFTQG
# Biological target: human Hsp90β (human, UniProt P08238 1-724)
# Sequence (P08238 whole entry): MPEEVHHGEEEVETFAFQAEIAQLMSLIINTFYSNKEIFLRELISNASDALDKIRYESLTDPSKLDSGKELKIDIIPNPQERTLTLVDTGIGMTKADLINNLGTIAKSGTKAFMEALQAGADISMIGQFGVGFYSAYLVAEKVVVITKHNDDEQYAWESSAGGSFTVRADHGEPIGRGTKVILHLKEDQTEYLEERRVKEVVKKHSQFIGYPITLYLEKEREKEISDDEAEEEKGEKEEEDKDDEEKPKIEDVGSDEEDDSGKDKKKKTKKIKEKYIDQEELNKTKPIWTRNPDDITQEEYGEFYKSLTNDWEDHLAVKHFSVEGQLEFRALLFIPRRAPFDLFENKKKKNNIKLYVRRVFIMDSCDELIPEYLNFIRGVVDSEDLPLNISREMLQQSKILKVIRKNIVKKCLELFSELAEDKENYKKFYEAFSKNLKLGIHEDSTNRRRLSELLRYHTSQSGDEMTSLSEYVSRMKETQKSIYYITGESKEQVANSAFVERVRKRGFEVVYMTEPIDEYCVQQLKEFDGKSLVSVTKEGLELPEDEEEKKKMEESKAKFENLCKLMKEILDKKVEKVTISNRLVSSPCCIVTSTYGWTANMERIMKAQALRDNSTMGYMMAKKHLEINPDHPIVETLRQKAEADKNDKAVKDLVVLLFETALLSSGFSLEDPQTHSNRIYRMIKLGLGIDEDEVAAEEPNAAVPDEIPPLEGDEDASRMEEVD
# Assay: SPR
row,Binder,Kd [µM]
1,B1,3.8
2,B2,2.5
